The target in assay [1] is NIR PKA biosensor (… SEQUENCE).
Assay [2] addresses NIR JNK biosensor (… SEQUENCE).
The target in assay [3] is miRFP670nano-DEVD-miRFP720 FRET-based reporter for caspase-3 activity (… SEQUENCE).

From patent US12134634B2 come the findings set out here.

In the case of Protein Kinase A (PKA) (enzyme), the FRET/miRFP670nano fluorescence ratio in assay [1] worked out at 33%.
Take c-Jun N-terminal kinase (JNK) (enzyme): the FRET/miRFP670nano fluorescence ratio in assay [2] was found to be 35%.
Take “caspase-3 (from UniProt P42574) (enzyme)”: the FRET/miRFP670nano fluorescence ratio detected at 725 nm/667 nm in assay [3] came to 1.65 fold.
